Consider one substance from publication PMC4721544.

This assay has as its target EGFP-EVH2(Mena) (mouse). Nature of the assay: cross-linking; lysates of MV^D7 cells stably expressing EGFP-EVH2 (Mena); 100 mM EDC and 10 mM NHS-ester, 1 h, room temperature; 50 mM MES pH 6.0, 500 mM NaCl; SDS/6% PAGE and anti-GFP western blot.

As to EGFP-EVH2(Mena) (domain or fragment), the stoichiometry N was 4.
